# Test results as given in patent US20200369765A1 (INNATE PHARMA, published 2020).
# Columns and labels:
# [1] = biological target: T1, Siglec-9 Fc protein (human); experiment: SPR (Biacore T200), Fab over immobilized Siglec-9 Fc, 1:1 model
# T1 construct: Produced in CHO cells; also called human Siglec-9 Fc
# Method: (§1) SPR measurements were performed on a Biacore™ T200 apparatus (Biacore™ GE Healthcare) at 25° C. In all Biacore™ experiments HBS-EP+(Biacore™ GE Healthcare) and NaOH 10 mM served as running buffer and regeneration buffer respectively. Sensorgrams were analyzed with Biacore™ T200 Evaluation software. Human siglec-9 and -7 multimeric proteins were cloned, produced and purified at Innate Pharma.
# (§2) Proteins were immobilized covalently to carboxyl groups in the dextran layer on a Sensor Chip CM5. The chip surface was activated with EDC/NHS (N-ethyl-N′-(3-dimethylaminopropyl) carbodiamide hydrochloride and N-hydroxysuccinimide (Biacore™ GE Healthcare). Proteins were diluted to 10 μg/ml in coupling buffer (10 mM acetate, pH 4.2 & 5.0) and injected until the appropriate immobilization level was reached (i.e., 600 to 2000RU). Deactivation of the remaining activated groups was performed using 100 mM ethanolamine pH 8 (Biacore™, GE Healthcare).
# (§3) The affinity study was carried out according to a standard Kinetic protocol recommended by the manufacturer (Biacore™ GE Healthcare kinetic wizard). […] The entire sensorgram sets were fitted using the 1:1 kinetic binding model. Monovalent affinities and kinetic association and dissociation rate constants are shown below in Table 2 below.
# [2] = biological target: T2, Human Siglec-9 mutant M7 (human, UniProt Q9Y336 18-463); experiment: flow cytometry, HEK293T transfectants
# T2 construct: Expressed on HEK293T cells; also called Mutant 7
# T2 sequence (Q9Y336 other isoform, or with tags, fused parts or gaps mutant): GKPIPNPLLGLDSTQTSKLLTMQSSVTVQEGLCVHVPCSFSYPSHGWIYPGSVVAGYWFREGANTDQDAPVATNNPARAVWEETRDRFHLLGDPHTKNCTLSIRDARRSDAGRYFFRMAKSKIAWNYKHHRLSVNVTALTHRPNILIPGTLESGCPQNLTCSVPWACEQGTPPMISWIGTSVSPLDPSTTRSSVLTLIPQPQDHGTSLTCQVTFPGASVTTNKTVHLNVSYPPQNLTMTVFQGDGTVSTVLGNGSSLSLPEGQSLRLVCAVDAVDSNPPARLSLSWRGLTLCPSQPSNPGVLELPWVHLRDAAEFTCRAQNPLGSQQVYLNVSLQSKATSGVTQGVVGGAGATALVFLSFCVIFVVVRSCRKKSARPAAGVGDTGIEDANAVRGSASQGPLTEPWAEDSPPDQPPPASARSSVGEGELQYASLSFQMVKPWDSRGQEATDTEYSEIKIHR
# [3] = biological target: T3, Human Siglec-9 mutant M15 (human, UniProt Q9Y336 18-463); experiment: flow cytometry, HEK293T transfectants
# T3 construct: Expressed on HEK293T cells; also called Mutant 15
# T3 sequence (Q9Y336 other isoform, or with tags, fused parts or gaps mutant): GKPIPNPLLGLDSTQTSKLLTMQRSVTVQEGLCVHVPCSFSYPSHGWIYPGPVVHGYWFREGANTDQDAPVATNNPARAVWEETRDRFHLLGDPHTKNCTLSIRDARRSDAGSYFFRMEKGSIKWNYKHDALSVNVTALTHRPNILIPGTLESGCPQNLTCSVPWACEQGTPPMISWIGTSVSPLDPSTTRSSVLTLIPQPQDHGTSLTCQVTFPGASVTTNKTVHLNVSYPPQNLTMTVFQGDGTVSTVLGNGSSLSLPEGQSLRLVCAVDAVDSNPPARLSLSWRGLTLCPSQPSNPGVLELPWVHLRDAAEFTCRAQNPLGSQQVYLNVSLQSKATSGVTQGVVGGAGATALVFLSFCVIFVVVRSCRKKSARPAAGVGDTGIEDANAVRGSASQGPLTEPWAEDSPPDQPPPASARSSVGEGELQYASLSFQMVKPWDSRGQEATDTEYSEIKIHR
# [4] = biological target: T4, Human Siglec-9 mutant M8 (human, UniProt Q9Y336 18-463); experiment: flow cytometry, HEK293T transfectants
# T4 construct: Expressed on HEK293T cells; also called Mutant 8
# T4 sequence (Q9Y336 other isoform, or with tags, fused parts or gaps mutant): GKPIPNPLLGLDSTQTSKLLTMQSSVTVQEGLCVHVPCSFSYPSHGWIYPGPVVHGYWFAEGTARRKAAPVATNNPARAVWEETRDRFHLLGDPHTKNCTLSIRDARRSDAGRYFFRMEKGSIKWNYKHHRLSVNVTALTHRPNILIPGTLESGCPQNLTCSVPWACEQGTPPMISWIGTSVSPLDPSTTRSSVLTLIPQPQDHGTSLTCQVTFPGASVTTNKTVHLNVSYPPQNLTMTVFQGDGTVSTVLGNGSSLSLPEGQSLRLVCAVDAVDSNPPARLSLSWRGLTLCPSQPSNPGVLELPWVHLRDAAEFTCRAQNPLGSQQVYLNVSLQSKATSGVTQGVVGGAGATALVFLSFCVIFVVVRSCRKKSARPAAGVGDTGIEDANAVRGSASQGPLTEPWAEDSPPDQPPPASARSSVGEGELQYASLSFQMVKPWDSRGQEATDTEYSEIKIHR
# [5] = biological target: T5, Human Siglec-9 mutant M16 (human, UniProt Q9Y336 18-463); experiment: flow cytometry, HEK293T transfectants; '-' indicates full loss of binding
# T5 construct: Expressed on HEK293T cells; also called Mutant 16
# [6] = biological target: T6, Human Siglec-9 (human, UniProt Q9Y336 18-463); experiment: flow cytometry, CHO Siglec-9 cells, mean n = 2
# T6 construct: On transfected CHO cells; also on YTS and KHYG-1 transfectants, primary NK cells and moDC; also called huSiglec-9; CD329
# T6 sequence (Q9Y336 18-463): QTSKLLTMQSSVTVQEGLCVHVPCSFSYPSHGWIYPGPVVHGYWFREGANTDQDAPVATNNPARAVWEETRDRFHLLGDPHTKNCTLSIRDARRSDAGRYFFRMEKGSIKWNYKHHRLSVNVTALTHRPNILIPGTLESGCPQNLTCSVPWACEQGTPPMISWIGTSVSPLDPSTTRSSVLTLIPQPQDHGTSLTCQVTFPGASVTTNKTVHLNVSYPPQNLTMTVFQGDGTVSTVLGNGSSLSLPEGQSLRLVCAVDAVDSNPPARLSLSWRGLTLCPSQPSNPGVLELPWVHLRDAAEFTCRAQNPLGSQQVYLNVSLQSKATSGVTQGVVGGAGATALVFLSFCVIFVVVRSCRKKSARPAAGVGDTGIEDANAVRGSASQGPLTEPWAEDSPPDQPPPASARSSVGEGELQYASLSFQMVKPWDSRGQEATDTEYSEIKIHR
# Method: Binding of humanized antibodies was tested on CHO cells transfected with human Siglec-9, in a titration experiment by flow cytometry. Cells were incubated 90 minutes at 37° C. in Staining Buffer (SB) with primary antibodies at 10 ug/ml and a series of dilution of 1:10. They were washed three times with SB, then incubated 30 minutes with a goat F(ab′)² Anti-human IgG (Fc) PE. EC₅₀ values (μg/ml) for Siglec-9 expressing cells are shown below.
# [7] = biological target: T7, Human Siglec-9 mutant M2 (human, UniProt Q9Y336 18-463); experiment: flow cytometry, HEK293T transfectants
# T7 construct: Expressed on HEK293T cells; also called Mutant 2
# T7 sequence (Q9Y336 other isoform, or with tags, fused parts or gaps mutant): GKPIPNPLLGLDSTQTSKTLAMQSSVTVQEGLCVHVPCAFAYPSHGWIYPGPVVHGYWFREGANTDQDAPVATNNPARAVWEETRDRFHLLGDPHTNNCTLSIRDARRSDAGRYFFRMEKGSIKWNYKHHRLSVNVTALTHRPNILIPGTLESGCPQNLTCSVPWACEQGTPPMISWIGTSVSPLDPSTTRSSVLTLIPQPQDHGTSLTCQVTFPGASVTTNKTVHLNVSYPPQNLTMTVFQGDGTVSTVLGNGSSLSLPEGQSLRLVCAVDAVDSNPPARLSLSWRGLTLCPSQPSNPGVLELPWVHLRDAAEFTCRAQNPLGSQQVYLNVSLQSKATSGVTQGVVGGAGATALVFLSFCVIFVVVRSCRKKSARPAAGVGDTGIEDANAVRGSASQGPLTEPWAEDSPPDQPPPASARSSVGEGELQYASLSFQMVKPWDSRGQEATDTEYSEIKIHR
# [8] = biological target: T8, Human Siglec-9 mutant M6 (human, UniProt Q9Y336 18-463); experiment: flow cytometry, HEK293T transfectants
# T8 construct: Expressed on HEK293T cells; also called Mutant 6
# T8 sequence (Q9Y336 other isoform, or with tags, fused parts or gaps mutant): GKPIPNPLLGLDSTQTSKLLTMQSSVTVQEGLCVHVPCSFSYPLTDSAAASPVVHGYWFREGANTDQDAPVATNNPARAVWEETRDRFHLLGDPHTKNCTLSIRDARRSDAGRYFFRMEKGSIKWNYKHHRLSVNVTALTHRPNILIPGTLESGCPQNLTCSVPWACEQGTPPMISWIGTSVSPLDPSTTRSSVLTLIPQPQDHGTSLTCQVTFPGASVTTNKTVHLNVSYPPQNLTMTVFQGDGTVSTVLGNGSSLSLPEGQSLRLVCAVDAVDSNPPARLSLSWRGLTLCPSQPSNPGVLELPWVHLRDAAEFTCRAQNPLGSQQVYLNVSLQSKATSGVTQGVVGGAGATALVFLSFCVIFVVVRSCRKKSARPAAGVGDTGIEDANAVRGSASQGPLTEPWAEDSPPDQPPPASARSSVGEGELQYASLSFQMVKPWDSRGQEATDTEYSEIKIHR
# [9] = biological target: T9, Human Siglec-9 mutant M5 (human, UniProt Q9Y336 18-463); experiment: flow cytometry, HEK293T transfectants
# T9 construct: Expressed on HEK293T cells; also called Mutant 5
# T9 sequence (Q9Y336 other isoform, or with tags, fused parts or gaps mutant): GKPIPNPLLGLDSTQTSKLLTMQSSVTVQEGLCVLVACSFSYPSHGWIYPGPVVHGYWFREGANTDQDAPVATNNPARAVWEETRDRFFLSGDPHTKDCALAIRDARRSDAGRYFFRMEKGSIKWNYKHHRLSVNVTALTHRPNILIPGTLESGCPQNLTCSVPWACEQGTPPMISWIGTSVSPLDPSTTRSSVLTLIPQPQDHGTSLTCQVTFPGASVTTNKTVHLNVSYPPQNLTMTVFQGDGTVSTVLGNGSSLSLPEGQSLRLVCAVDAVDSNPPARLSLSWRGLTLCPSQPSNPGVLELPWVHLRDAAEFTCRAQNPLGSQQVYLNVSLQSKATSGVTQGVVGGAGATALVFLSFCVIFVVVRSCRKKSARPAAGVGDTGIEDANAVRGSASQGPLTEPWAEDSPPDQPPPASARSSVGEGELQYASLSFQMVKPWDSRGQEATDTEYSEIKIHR
# [10] = biological target: T10, Human Siglec-9 mutant M11 (human, UniProt Q9Y336 18-463); experiment: flow cytometry, HEK293T transfectants; '-' indicates full loss of binding
# T10 construct: Expressed on HEK293T cells; also called Mutant 11
# T10 sequence (Q9Y336 other isoform, or with tags, fused parts or gaps mutant): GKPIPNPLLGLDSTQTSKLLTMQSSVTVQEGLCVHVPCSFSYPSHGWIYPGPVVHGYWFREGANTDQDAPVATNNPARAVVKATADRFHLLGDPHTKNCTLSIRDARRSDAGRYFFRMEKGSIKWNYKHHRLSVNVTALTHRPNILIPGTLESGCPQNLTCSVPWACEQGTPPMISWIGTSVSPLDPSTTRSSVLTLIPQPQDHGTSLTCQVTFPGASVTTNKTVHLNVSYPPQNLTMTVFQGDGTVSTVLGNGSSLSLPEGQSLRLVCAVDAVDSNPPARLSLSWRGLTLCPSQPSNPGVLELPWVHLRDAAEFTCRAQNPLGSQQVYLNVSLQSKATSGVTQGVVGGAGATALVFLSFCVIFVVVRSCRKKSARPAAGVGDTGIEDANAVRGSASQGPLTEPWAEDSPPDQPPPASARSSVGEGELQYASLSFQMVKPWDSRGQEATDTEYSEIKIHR
# [11] = biological target: T11, Human Siglec-9 mutant M14 (human, UniProt Q9Y336 18-463); experiment: flow cytometry, HEK293T transfectants
# T11 construct: Expressed on HEK293T cells; also called Mutant 14
# [12] = biological target: T10, Human Siglec-9 mutant M11; experiment: flow cytometry, HEK293T transfectants
# [13] = biological target: T8, Human Siglec-9 mutant M6; experiment: flow cytometry, HEK293T transfectants; '-' indicates full loss of binding
# [14] = biological target: T4, Human Siglec-9 mutant M8; experiment: as above
# [15] = biological target: T12, Siglec-7 Fc protein (human); experiment: SPR (Biacore T200), Fab over immobilized Siglec-7 Fc, 1:1 model
# T12 construct: Produced in CHO cells; also called human Siglec-7 Fc
# T12 sequence (chain, as listed by the source limits assumed): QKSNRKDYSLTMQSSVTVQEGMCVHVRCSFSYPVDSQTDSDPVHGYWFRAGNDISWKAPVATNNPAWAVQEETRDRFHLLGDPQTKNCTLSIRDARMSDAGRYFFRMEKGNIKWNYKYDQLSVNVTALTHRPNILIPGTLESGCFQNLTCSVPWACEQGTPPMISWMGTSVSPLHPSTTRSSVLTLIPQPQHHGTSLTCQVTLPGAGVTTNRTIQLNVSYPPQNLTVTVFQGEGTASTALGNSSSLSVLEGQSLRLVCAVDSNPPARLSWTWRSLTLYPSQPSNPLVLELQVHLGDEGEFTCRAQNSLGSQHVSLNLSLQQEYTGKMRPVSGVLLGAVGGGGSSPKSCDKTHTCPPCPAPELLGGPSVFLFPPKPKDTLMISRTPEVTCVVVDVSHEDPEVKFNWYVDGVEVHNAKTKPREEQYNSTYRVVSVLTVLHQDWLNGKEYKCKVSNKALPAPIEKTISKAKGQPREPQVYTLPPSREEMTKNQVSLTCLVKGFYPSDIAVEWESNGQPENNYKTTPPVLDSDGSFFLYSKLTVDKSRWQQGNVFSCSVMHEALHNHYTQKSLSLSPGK
# Method: as §1, §2, §3
# T1 sequence (chain, as listed by the source limits assumed): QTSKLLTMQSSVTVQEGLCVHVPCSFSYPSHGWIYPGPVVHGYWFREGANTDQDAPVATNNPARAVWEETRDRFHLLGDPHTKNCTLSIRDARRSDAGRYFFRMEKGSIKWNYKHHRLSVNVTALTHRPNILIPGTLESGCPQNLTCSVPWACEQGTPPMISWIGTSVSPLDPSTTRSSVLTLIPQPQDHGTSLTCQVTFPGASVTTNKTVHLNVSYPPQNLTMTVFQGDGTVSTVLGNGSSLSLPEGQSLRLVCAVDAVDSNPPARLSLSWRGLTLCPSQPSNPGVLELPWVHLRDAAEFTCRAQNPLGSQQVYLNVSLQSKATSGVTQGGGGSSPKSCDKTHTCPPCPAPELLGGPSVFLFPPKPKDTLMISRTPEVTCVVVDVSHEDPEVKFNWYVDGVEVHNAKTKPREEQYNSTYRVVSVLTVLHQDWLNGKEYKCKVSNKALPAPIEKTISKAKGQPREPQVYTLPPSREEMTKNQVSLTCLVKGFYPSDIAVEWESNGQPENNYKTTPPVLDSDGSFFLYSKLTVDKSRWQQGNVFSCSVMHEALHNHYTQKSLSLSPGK
Kd [1] [nM],koff [1] [s⁻¹],binding result [2],binding result [3],binding result [4],EC50 [6] [µg/mL],Binder,also measured
0.37,0.00031,binds,binds,binds,,"Fab.B (Fab of mAbB) (Fab, V domains shown) VH: QVQLQQPGAELVKPGASVKLSCKASVYTFTSYWMHWVKQRPGQGLEWIGEINPSNGHTNYNEKFKTKAKLTVDKSSSTAYMQLSSLTSEDSAVYFCANGVETYDFDDAMDYWGQGTSVTVSS VL: DIQMTQTTSSLSASLGDRVTISCRASQDINNYLNWYQQKPDGTVKLLIYFTSRLHSGVPSRFSGSGSGTDYSLTISNLEQEDIATYFCQQGDTFPFTFGGGTKLEIK",binding result [5]: no binding
,,,,,0.019,"mAbD H1L2 (antibody, V domains shown, constant region not specified) VH: QVQLVQSGSELKKPGASVKVSCKASGYTFTDYSMHWVRQAPGQGLKWMGWIITETGEPTYADDFRGRFVFSLDTSVSTAYLQISSLKAEDTAVYYCARDFDGYWGQGTTVTVSS VL: DIQMTQSPSSLSASVGDRVTITCRASENIYSYLAWYQQKPGKAPKFLIYNAKTLTEGVPSRFRGSGSGTDFTLTISSLQPEDFATYYCQHHYGFPWTFGGGTKVEIK",
,,,,,0.021,"mAbD H2L2 (antibody, V domains shown, constant region not specified) VH: QVQLVQSGSELKKPGASVKVSCKASGYTFTDYSMHWVRQAPGQGLKWMGWIITETGEPTYADDFRGRFVFSLDTSVSTAYLQISSLKAEDTAVYFCARDFDGYWGQGTTVTVSS VL: DIQMTQSPSSLSASVGDRVTITCRASENIYSYLAWYQQKPGKAPKFLIYNAKTLTEGVPSRFRGSGSGTDFTLTISSLQPEDFATYYCQHHYGFPWTFGGGTKVEIK",
1,0.0019,binds,,,,"Fab.E (Fab of mAbE) (Fab, V domains shown) VH: DVQLVESGGGLVQPGGSRKLSCAASGFTFSTFGMHWVRQAPEKGLEWVAYISSGSNAIYYADTVKGRFTISRDNPKNTLFLQMTSLRSEDTAMYYCASPGYGAWFAYWGQGTLVTVSA VL: ENVLTQSPAIMSASPGEKVTMTCRASSSVSSAYLHWYQQKSGASPKLWIYSTSNLASGVPARFSGSGSGTSYSLTISSVEAEDAATYYCQQYSAYPYTFGGGTKLEIK",binding result [7]: binds; binding result [8]: binds; binding result [9]: binds; binding result [10]: no binding
0.55,0.00043,binds,binds,,,"Fab.C (Fab of mAbC) (Fab, V domains shown) VH: QIQLVQSGPELKKPGETVKISCKASGYTFTNYEMNWVKEAPGKGLKWMGWINTYTGESTYADDFKGRFAFSLETSASTVYLQINNLKDEDVATYFCVRDDYGRSYGFAYWGQGTLVTVSA VL: NIVLTQSPASLTVSLGQRANISCRASESVDSYGNSFMHWYQQKPGQPPKLLIYLASKLESGVPARFSGSGSRTDFTLTIDPVETDDAATYYCHQNNEDPPWTFGGGTKLEIK",binding result [11]: binds; binding result [12]: binds; binding result [14]: no binding
0.8,0.00017,,,,,"Fab2 (Fab of mAb2) (Fab, V domains shown, Fab fragment of the antibody) VH: EVQLQESGPGLVKPSQSLSLTCTVTGYSITGGFAWNWIRQFPGNTLEWMGYIGYGGSTSYNPSLNSRISITRDTSKNHFFLQFNSVTTEDSATYYCARGDYLFAYWGQGTLVTVSA VL: DIVMTQSHKFMSTSVGDRVSITCKASQDVNTAVAWYQQKPGQSPKLLIYSASYRYTGVPDRFTGSGSGTDFTFTISSVQAEDLAVYYCQQHYSTPRTFGGGTKLEIK",Kd [15]: 0.07 nM; koff [15]: 4e-05 s⁻¹

# Further lines, the binder ahead of its results:
Binder,Kd [1] [nM],koff [1] [s⁻¹],binding result [2],binding result [3],binding result [4],EC50 [6] [µg/mL],also measured
"Fab.A (Fab of mAbA) (Fab, V domains shown) VH: QVQLQQPGAELVKPGSPVKLSCKASYFTFTSYWMHWVRQRPGQGLEWIGEINPSNGHTNYNEKFESKATLTVDRSSSTAYMQLSSLTSEDSAVFYCANGVESYDFDDALDYWGQGTSVTVSS VL: DIQMTQTTSSLSASLGDRVTISCRASQDINNYLNWYQQKPDGTIKLLIYYTSRLHSGVPSRFSGSGSGTDYSLTINNLEQEDIATYFCQQGNTLPFTFGGGTKLEIK",0.04,2.5e-05,binds,binds,binds,,binding result [5]: no binding
"mAbD H2L0 (antibody, V domains shown, constant region not specified) VH: QVQLVQSGSELKKPGASVKVSCKASGYTFTDYSMHWVRQAPGQGLKWMGWIITETGEPTYADDFRGRFVFSLDTSVSTAYLQISSLKAEDTAVYFCARDFDGYWGQGTTVTVSS VL: DIQMTQSPSSLSASVGDRVTITCRASENIYSYLAWYQQKPGKAPKLLIYNAKTLTEGVPSRFSGSGSGTDFTLTISSLQPEDFATYYCQHHYGFPWTFGGGTKVEIK",,,,,,0.03,
"mAbD H2L1 (antibody, V domains shown, constant region not specified) VH: QVQLVQSGSELKKPGASVKVSCKASGYTFTDYSMHWVRQAPGQGLKWMGWIITETGEPTYADDFRGRFVFSLDTSVSTAYLQISSLKAEDTAVYFCARDFDGYWGQGTTVTVSS VL: DIQMTQSPSSLSASVGDRVTITCRASENIYSYLAWYQQKPGKAPKFLIYNAKTLTEGVPSRFSGSGSGTDFTLTISSLQPEDFATYYCQHHYGFPWTFGGGTKVEIK",,,,,,0.016,
"Fab.F (Fab of mAbF) (Fab, V domains shown) VH: QVQLQQSGPEVVRPGVSVKISCKGSGYTFTDYSMHWVKQSHAKSLEWIGVISTYNGNTNYNQKFKGKATMTVDKSSSTAYMELARLTSEDSAIYYCARRGYYGSSSWFGYWGQGTLVTVSA VL: DIVMTQSQKFMSTSVGDRVSVTCKASQNVGTDVAWYQQKPGQSPEALIYSASYRYSGVPDRFTGSGSGADFTLTISNVQSEDLAEYFCQQYNSFPYTFGGGTKLEIK",1,0.00046,binds,,,,binding result [7]: binds; binding result [8]: binds; binding result [9]: binds; binding result [10]: no binding
"Fab.D (Fab of mAbD) (Fab, V domains shown) VH: QIQLVQSGPELKKPGETVKISCKASGYTFTDYSMHWVKQAPGKGLKWMGWIITETGEPTYADDFRGRFAFSLETSANTAYLQINNLKNEDTATYFCARDFDGYWGQGTTLTVSS VL: DILMTQSPASLSASVGETVTITCRASENIYSYLAWYQQKRGKSPQFLVYNAKTLTEGVPSRFRGSGSGTQFSLKINSLQPEDFGTYYCQHHYGFPWTFGGGTKLEIK",4.12,0.00011,,binds,binds,,binding result [11]: binds; binding result [12]: binds; binding result [13]: no binding
"Fab1 (Fab of mAb1) (Fab, V domains shown) VH: DVQLQESGPGLVKPSQSLSLTCTVTGYSITGGFAWNWIRQFPGNTLEWMGYIGYGGSTSYNPSLNSRISITRDTSKNHFFLQFNSVTTDDSATYYCARGDYLFAYWGQGTLVTVSA VL: DIVMTQSHKFMSTSVGDRVSITCKASQDVNTAVAWYQQKPGQSPKLLIYSASYRYTGVPDRFTGSGSGTDFTFTISSVQAEDLAVYYCQQHYSTPRTFGGGTKLEIK",0.4,0.00016,binds,,binds,,Kd [15]: 0.06 nM; koff [15]: 4e-05 s⁻¹; binding result [7]: binds; binding result [8]: binds; binding result [9]: binds; binding result [10]: no binding
